Experimental data as given in US20110098217A1 (INDIANA UNIVERSITY RESEARCH AND TECHNOLOGY, published 2011).
“And” between values parts separate entries of the source, which are not always exact repeats. Equal values may be shown once. Read-outs that look alike come from different tables or passages of the source. Bridge positions count the residues as written; N and C are the ends. Square brackets hold non-standard residues; d marks the D form. Primed or numbered codes have the meaning given here. Ends that are not written are not given here. MCA = alpha-methylhydrocinnamic acid (2-methyl-3-phenylpropanoic acid); PEG 20 kDa″ = 20 kDa polyethylene glycol (PEG); Abu(4-SO3H) = N[C@@H](CCS(=O)(=O)O)C(=O)O; PEG 20 kDa = 20 kDa polyethylene glycol; PhLac = O=C(O)[C@@H](O)Cc1ccccc1

B1: [PLA6, E16K20(lactam), GLP(23-32)]G(6-29) (peptide)
peptide: [PhLac]TSDYSKYLDEQAAKEFIAWLMDT-NH2
modifications: lactam 11-15; N-terminus assumed
SMILES: CC[C@H](C)[C@H](NC(=O)[C@H](Cc1ccccc1)NC(=O)[C@H](CCC(=O)O)NC(=O)[C@@H]1CCCCNC(=O)CC[C@H](NC(=O)[C@H](CC(=O)O)NC(=O)[C@H](CC(C)C)NC(=O)[C@H](Cc2ccc(O)cc2)NC(=O)[C@H](CCCCN)NC(=O)[C@H](CO)NC(=O)[C@H](Cc2ccc(O)cc2)NC(=O)[C@H](CC(=O)O)NC(=O)[C@H](CO)NC(=O)[C@@H](NC(=O)[C@@H](O)Cc2ccccc2)[C@@H](C)O)C(=O)N[C@@H](CCC(N)=O)C(=O)N[C@@H](C)C(=O)N[C@@H](C)C(=O)N1)C(=O)N[C@@H](C)C(=O)N[C@@H](Cc1c[nH]c2ccccc12)C(=O)N[C@@H](CC(C)C)C(=O)N[C@@H](CCSC)C(=O)N[C@@H](CC(=O)O)C(=O)N[C@H](C(N)=O)[C@@H](C)O
B2: [PLA6, K12E16(lactam), GLP(23-32)]G(6-29) (peptide)
peptide: [PhLac]TSDYSKYLDEQAAKDFIAWLMDT-NH2
modifications: lactam 7-11; N-terminus assumed
SMILES: CC[C@H](C)[C@H](NC(=O)[C@H](Cc1ccccc1)NC(=O)[C@H](CC(=O)O)NC(=O)[C@H](CCCCN)NC(=O)[C@H](C)NC(=O)[C@H](C)NC(=O)[C@H](CCC(N)=O)NC(=O)[C@@H]1CCC(=O)NCCCC[C@H](NC(=O)[C@H](CO)NC(=O)[C@H](Cc2ccc(O)cc2)NC(=O)[C@H](CC(=O)O)NC(=O)[C@H](CO)NC(=O)[C@@H](NC(=O)[C@@H](O)Cc2ccccc2)[C@@H](C)O)C(=O)N[C@@H](Cc2ccc(O)cc2)C(=O)N[C@@H](CC(C)C)C(=O)N[C@@H](CC(=O)O)C(=O)N1)C(=O)N[C@@H](C)C(=O)N[C@@H](Cc1c[nH]c2ccccc12)C(=O)N[C@@H](CC(C)C)C(=O)N[C@@H](CCSC)C(=O)N[C@@H](CC(=O)O)C(=O)N[C@H](C(N)=O)[C@@H](C)O
B3: [desHis^1, Leu^4, hCys^9(SO3-), Phe^25, Leu^27] Glucagon-NH2 (peptide)
peptide: SQLTFTS[Abu(4-SO3H)]YSKYLDSRRAQDFVQFLLNT-NH2
modifications: N-terminus assumed
SMILES: CC(C)C[C@H](NC(=O)[C@H](Cc1ccc(O)cc1)NC(=O)[C@H](CCCCN)NC(=O)[C@H](CO)NC(=O)[C@H](Cc1ccc(O)cc1)NC(=O)[C@H](CCS(=O)(=O)O)NC(=O)[C@H](CO)NC(=O)[C@@H](NC(=O)[C@H](Cc1ccccc1)NC(=O)[C@@H](NC(=O)[C@H](CC(C)C)NC(=O)[C@H](CCC(N)=O)NC(=O)[C@@H](N)CO)[C@@H](C)O)[C@@H](C)O)C(=O)N[C@@H](CC(=O)O)C(=O)N[C@@H](CO)C(=O)N[C@@H](CCCNC(=N)N)C(=O)N[C@@H](CCCNC(=N)N)C(=O)N[C@@H](C)C(=O)N[C@@H](CCC(N)=O)C(=O)N[C@@H](CC(=O)O)C(=O)N[C@@H](Cc1ccccc1)C(=O)N[C@H](C(=O)N[C@@H](CCC(N)=O)C(=O)N[C@@H](Cc1ccccc1)C(=O)N[C@@H](CC(C)C)C(=O)N[C@@H](CC(C)C)C(=O)N[C@@H](CC(N)=O)C(=O)N[C@H](C(N)=O)[C@@H](C)O)C(C)C
B4: [PLA6, E16, GLP(23-32)]G(6-29) (peptide)
peptide: [PhLac]TSDYSKYLDEQAAKEFIAWLMNT-NH2
modifications: N-terminus assumed
SMILES: CC[C@H](C)[C@H](NC(=O)[C@H](Cc1ccccc1)NC(=O)[C@H](CCC(=O)O)NC(=O)[C@H](CCCCN)NC(=O)[C@H](C)NC(=O)[C@H](C)NC(=O)[C@H](CCC(N)=O)NC(=O)[C@H](CCC(=O)O)NC(=O)[C@H](CC(=O)O)NC(=O)[C@H](CC(C)C)NC(=O)[C@H](Cc1ccc(O)cc1)NC(=O)[C@H](CCCCN)NC(=O)[C@H](CO)NC(=O)[C@H](Cc1ccc(O)cc1)NC(=O)[C@H](CC(=O)O)NC(=O)[C@H](CO)NC(=O)[C@@H](NC(=O)[C@@H](O)Cc1ccccc1)[C@@H](C)O)C(=O)N[C@@H](C)C(=O)N[C@@H](Cc1c[nH]c2ccccc12)C(=O)N[C@@H](CC(C)C)C(=O)N[C@@H](CCSC)C(=O)N[C@@H](CC(N)=O)C(=O)N[C@H](C(N)=O)[C@@H](C)O

Legend:
human glucagon receptor [1] = target: T1, human glucagon receptor (human, UniProt P47871 26-477); test: cell-based or functional assay
human glucagon receptor [2] = target: T1, human glucagon receptor; test: SPA competition vs 125I-glucagon, receptor membranes
human GLP-1 receptor [3] = target: T2, human GLP-1 receptor (human, UniProt P43220 24-463); test: cell-based or functional assay
human GLP-1 receptor [4] = target: T2, human GLP-1 receptor; test: cell-based or functional assay; remark: listed apart in the source
human glucagon receptor [5] = target: T1, human glucagon receptor; test: cell-based or functional assay; remark: listed apart in the source
human glucagon receptor [6] = target: T1, human glucagon receptor; test: cell-based or functional assay; remark: listed apart in the source

T1 sequence (P47871 26-477): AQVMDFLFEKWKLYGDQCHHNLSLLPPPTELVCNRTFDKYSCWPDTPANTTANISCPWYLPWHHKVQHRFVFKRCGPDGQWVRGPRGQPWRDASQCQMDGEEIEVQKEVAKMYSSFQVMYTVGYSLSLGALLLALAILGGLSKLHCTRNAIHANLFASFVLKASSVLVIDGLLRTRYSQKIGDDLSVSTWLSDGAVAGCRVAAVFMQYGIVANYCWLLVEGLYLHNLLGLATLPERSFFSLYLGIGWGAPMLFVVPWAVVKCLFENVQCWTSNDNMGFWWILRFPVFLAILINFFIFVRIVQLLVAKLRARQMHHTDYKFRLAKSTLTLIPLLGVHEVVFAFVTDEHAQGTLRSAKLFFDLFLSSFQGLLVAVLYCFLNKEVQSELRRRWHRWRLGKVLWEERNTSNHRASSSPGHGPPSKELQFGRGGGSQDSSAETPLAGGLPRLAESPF

| Binder | IC50 (cAMP, inhibit 0.2 mM Glucagon) (human glucagon receptor [1]) | IC50 (human glucagon receptor [2]) [nM] | also measured |
| --- | --- | --- | --- |
| [PhLac]TC(PEG 20 kDa)EYSKYLDSRRAQDFVQWLMNT-NH2 [[PLA^6, C^8(20kDaPEG), E^9]Glucagon(aa6-29)-NH2] | 236 nM and 92 nM | 303 | – |
| [PhLac]TSEYSKYLDSRRAQDFVC(PEG 20 kDa)WLMNT-NH2 [[PLA^6, E^9, C^24(20kDaPEG)]Glucagon(aa6-29)-NH2] | 126 nM | 90 | – |
| [MCA]TSEYSKYLDSRRAQDFVC(PEG 20 kDa)WLMNT-NH2 [[MCA^6, E^9, C^24(20kDaPEG)]Glucagon(aa6-29)-NH2] | – | 208 | – |
| [PhLac]TSEYC(PEG 20 kDa)KYLDSRRAQDFVQWLMNT-NH2 [[PLA^6, E^9, C^11(20kDaPEG)]Glucagon(aa6-29)-NH2] | 664 nM | 776 | – |
| [PhLac]TSEYSKYLDSRRAQDFVC(PEG 1.2 kDa)WLMNT-NH2 [[PLA^6, E^9,C^24(1.2 kDaPEG)]Glucagon(aa6-29)-NH2] | 18 nM | 4.7 | – |
| C(PEG 3.4 kDa)FTSEYSKYLDSRRAQDFVQWLMNT-NH2 (also: dimer: Cys5 of two chains joined by 3.4 kDa PEG) [3.4kDaPEG-dimer[C^5, E^9]Glucagon(aa5-29)-NH2] | 1340 nM | 435 | – |
| C(PEG 20 kDa)FTSEYSKYLDSRRAQDFVQWLMNT-NH2 [[C^5(20kDaPEG), E^9]Glucagon(aa5-29)-NH2] | 976 nM | 331 | – |
| C(PEG 5 kDa)FTSEYSKYLDSRRAQDFVQWLMNT-NH2 [[C^5(5kDaPEG), E^9]Glucagon(aa5-29)-NH2] | 1610 nM | 634 | – |
| C(PEG 1.2 kDa)FTSEYSKYLDSRRAQDFVQWLMNT-NH2 [[C^5(1.2kDaPEG), E^9]Glucagon(aa5-29)-NH2] | 2280 nM | 1080 | – |
| [PhLac]TSDYSKYLDERRAQDFVQWLMDTGPSSGAPPPSC(PEG 20 kDa)-NH2 (lactam 7-11) [[PLA6, K12E16(Lactam), D28,CEX-C40(20 kDa)]G(6-40)] | – | – | GLP-1 agonism EC50 (human GLP-1 receptor [3]): 657 nM |
| [PhLac]TC(PEG 1.2 kDa)EYSKYLDSRRAQDFVQWLMNT-NH2 [[PLA^6, C^8(1.2kDaPEG), E^9]Glucagon(aa6-29)-NH2] | – | 220 | – |
| [PhLac]TSEYSKYLDERRAKDFVC(PEG 20 kDa″)WLMNT-NH2 (lactam 11-15) [[PLA6, E9,E16K20(Lactam), C24(20 kDa)]G(6-29)] | – | – | GLP-1 agonism EC50 (human GLP-1 receptor [3]): 825 nM |
| [PhLac]TC(PEG 5 kDa)EYSKYLDSRRAQDFVQWLMNT-NH2 [[PLA^6, C^8(5kDaPEG), E^9]Glucagon(aa6-29)-NH2] | 216 nM | 948 | – |
| B1 | – | – | GLP-1 agonism EC50 (human GLP-1 receptor [4]): 51.2 nM |
| B2 | – | – | Glucagon antagonism IC50 (inhibit 0.2-0.8 nM glucagon) (human glucagon receptor [5]): 169 nM |
| B3 | – | – | cAMP Induction EC50 (human glucagon receptor [6]): 1610 nM; cAMP Inhibition IC50 (human glucagon receptor [6]): 4460 nM |
| B4 | – | – | Glucagon antagonism IC50 (inhibit 0.2-0.8 nM glucagon) (human glucagon receptor [5]): 64.5 nM; GLP-1 agonism EC50 (human GLP-1 receptor [4]): 85.6 nM |
